Results taken from patent US12077763B2, “RNA-based control of powdery mildew” (Greenlight Biosciences, Inc., priority 2021, dated 2024).

Test system: E. necator
Assay: Leaf disc assay, dry inoculum (settling tower), decrease in disease severity / hyphal growth (Example 2)
Details: decrease in disease severity (hyphal growth) relative to untreated control, value ± SE; for % decrease =/− SE TP1: time point 1 (untreated control hyphal growth ≥50%); for % decrease =/− SE TP2: time point 2

B1: GS3297 (nucleic acid)
sense: GAGAAGAGGUCCGUGAGAAUUUUGACUCAUCUUUUGCCGCUCUUUAUCAUGAUCUUGAUAUGGGAUUUACACCGAUCAACUUUACAUUUUACUGGGCACCUCUACCUUGGAAUCGUGCUCGUGAUCAUGCCCAAAGAACUGUUGCUAGGACUUAUAUGAAUAUAAUCCAAGCUCGUACCCUCCUCUUCCCCUUCCCCUUCAUUGAACCUCGCUCCAAGGGGGCUUUAUGGGAAUCUGCCUCGUAGUAUAAAGUUCUGCAGCUGGCUCUACGGAUUGCAUCUACAACAACUACAACAUCAUCAUCAUCAUCAUCUUCAUCUUCAUCUUCUCCACCUUCAUAAGCUUCUACGUUUU
antisense: AAAACGUAGAAGCUUAUGAAGGUGGAGAAGAUGAAGAUGAAGAUGAUGAUGAUGAUGAUGUUGUAGUUGUUGUAGAUGCAAUCCGUAGAGCCAGCUGCAGAACUUUAUACUACGAGGCAGAUUCCCAUAAAGCCCCCUUGGAGCGAGGUUCAAUGAAGGGGAAGGGGAAGAGGAGGGUACGAGCUUGGAUUAUAUUCAUAUAAGUCCUAGCAACAGUUCUUUGGGCAUGAUCACGAGCACGAUUCCAAGGUAGAGGUGCCCAGUAAAAUGUAAAGUUGAUCGGUGUAAAUCCCAUAUCAAGAUCAUGAUAAAGAGCGGCAAAAGAUGAGUCAAAAUUCUCACGGACCUCUUCUC
% decrease =/− SE TP1: 12 ± 6%
% decrease =/− SE TP2: 22 ± 7%

B2: GS3298 (nucleic acid)
sense: AUGCCUUACAAGGAGAAGAGGUCCGUGAGAAUUUUGACUCAUCUUUUGCCGCUCUUUAUCAUGAUCUUGAUAUGGGAUUUACACCGAUCAACUUUACAUUUUACUGGGCACCUCUACCUUGGAAUCGUGCUCGUGAUCAUGCCCAAAGAACUGUUGCUAGGACUUAUAUGAAUAUAAUCCAAGCUCGUAGAGAAGAGAAAACGUCAACAACCCCCCUCCUCUUCCCCUUCCCCUUCAUUGAACCUCGCUCCAAGGGGGCUUUAUGGGAAUCUGCCUCGUAGUAUAAAGUUCUGCAGCUGGCUCUACGGAUUGCAUCUACAACAACUACAACAUCAUCAUCAUCAUCAUCUUCAUCUUCAUCUUCUCCACCUUCAUAAGCUUCUACGUUUUUGCAUGUUCAA
antisense: UUGAACAUGCAAAAACGUAGAAGCUUAUGAAGGUGGAGAAGAUGAAGAUGAAGAUGAUGAUGAUGAUGAUGUUGUAGUUGUUGUAGAUGCAAUCCGUAGAGCCAGCUGCAGAACUUUAUACUACGAGGCAGAUUCCCAUAAAGCCCCCUUGGAGCGAGGUUCAAUGAAGGGGAAGGGGAAGAGGAGGGGGGUUGUUGACGUUUUCUCUUCUCUACGAGCUUGGAUUAUAUUCAUAUAAGUCCUAGCAACAGUUCUUUGGGCAUGAUCACGAGCACGAUUCCAAGGUAGAGGUGCCCAGUAAAAUGUAAAGUUGAUCGGUGUAAAUCCCAUAUCAAGAUCAUGAUAAAGAGCGGCAAAAGAUGAGUCAAAAUUCUCACGGACCUCUUCUCCUUGUAAGGCAU
% decrease =/− SE TP1: 22 ± 5%
% decrease =/− SE TP2: 7 ± 7%

B3: GS3299 (nucleic acid)
sense: CACCAGGAUCCACCUAAAGAUGAGCCAACCGAUCAGAAGUCUCUGGAGCUGAGGAGAACCUUAUUUUAUAGUAUUUACUCUCUUGAUAGAUCUGUCAGUAUGGUUCACGCGCGCUCUUUUUCAUUUACCGACGAUUCGACUAGCGUUACUUUCCCAUCCAUUAAGAACGAGAAAUUACCAGUCGACACCAAAUUAAAACUAGGUAGGAAAUUCAAGAUUCAAUCCUCACUUUUAUUCAAACUUCGAAAGAUUCAGUCUUCAUGGUAUCACGAGCUUUUUCAAUCCAAAAAUGAUUUUAUAACAAAUCCAUCAACAUAUAUUCAGAAAGUGUGUCAAGAAAUGCAAGCAUGGGCUCAGUCGAUUCCCGAAUAUUUACCCACUCAUAUCAAAAAUUAUUU
antisense: AAAUAAUUUUUGAUAUGAGUGGGUAAAUAUUCGGGAAUCGACUGAGCCCAUGCUUGCAUUUCUUGACACACUUUCUGAAUAUAUGUUGAUGGAUUUGUUAUAAAAUCAUUUUUGGAUUGAAAAAGCUCGUGAUACCAUGAAGACUGAAUCUUUCGAAGUUUGAAUAAAAGUGAGGAUUGAAUCUUGAAUUUCCUACCUAGUUUUAAUUUGGUGUCGACUGGUAAUUUCUCGUUCUUAAUGGAUGGGAAAGUAACGCUAGUCGAAUCGUCGGUAAAUGAAAAAGAGCGCGCGUGAACCAUACUGACAGAUCUAUCAAGAGAGUAAAUACUAUAAAAUAAGGUUCUCCUCAGCUCCAGAGACUUCUGAUCGGUUGGCUCAUCUUUAGGUGGAUCCUGGUG
% decrease =/− SE TP2: 14 ± 7%

B4: GS3300 (nucleic acid)
sense: GUAUCAACCAUUGCCUCUCCAAACCUUUCACCAACAACUUCCUUUUCAUCUUUUGUACGAACAGAAACGCCUGAUUCCAGUCUGCCAUUUAUAGAAAAUCCAGUGGCUAGACAAAAUGCACAUUGUAGUAGUAAGAGUGUUGGCAAUGGAAAUGGAAUUUUUAACUUGGACAUGAAUCUUUUGGCUUCUGCUGCUAUUAGGGUGGAAGGGAAUCACUCAUCAAACGCUUGUCAUCUCCCCCGAUACAAUAAAUCAUGCUGCGACCUCAGUGCGUACAAGAGUCGUUCUCAUUUUGCCUCAUCAUCACUUGUUCAGUCUCAUCCACCUCCGACAUUAGACAAGCUCAAUCAUUGCAUUAAGAGGUAUAUGAAGCGUUCACGAACUGACU
antisense: AGUCAGUUCGUGAACGCUUCAUAUACCUCUUAAUGCAAUGAUUGAGCUUGUCUAAUGUCGGAGGUGGAUGAGACUGAACAAGUGAUGAUGAGGCAAAAUGAGAACGACUCUUGUACGCACUGAGGUCGCAGCAUGAUUUAUUGUAUCGGGGGAGAUGACAAGCGUUUGAUGAGUGAUUCCCUUCCACCCUAAUAGCAGCAGAAGCCAAAAGAUUCAUGUCCAAGUUAAAAAUUCCAUUUCCAUUGCCAACACUCUUACUACUACAAUGUGCAUUUUGUCUAGCCACUGGAUUUUCUAUAAAUGGCAGACUGGAAUCAGGCGUUUCUGUUCGUACAAAAGAUGAAAAGGAAGUUGUUGGUGAAAGGUUUGGAGAGGCAAUGGUUGAUAC
% decrease =/− SE TP1: 9 ± 5%
% decrease =/− SE TP2: 4 ± 8%

B5: GS3302 (nucleic acid)
sense: UCUGAAGAGCCCUACCACUAUAAAGGUGUCAAGCUAGGUCAUUGAGAGGAUUGAGUUACGAAAUUUGAUUGCAGCCACGCCUUCGACUUCAACCGAGAAGAGUUCCAAUCUCCCUCUUAGACGCAGGACUACUCUCACGAUACUUCUGUCUCUACUUCUUCUCAUGAGCACGCUAAUACUCUCUAAGCCUCCGUUGAUGUGUUGAAAGACAGGCACCUCAGUUUUGAUUCUAUUCAGCUCGGCAAACAUG
antisense: CAUGUUUGCCGAGCUGAAUAGAAUCAAAACUGAGGUGCCUGUCUUUCAACACAUCAACGGAGGCUUAGAGAGUAUUAGCGUGCUCAUGAGAAGAAGUAGAGACAGAAGUAUCGUGAGAGUAGUCCUGCGUCUAAGAGGGAGAUUGGAACUCUUCUCGGUUGAAGUCGAAGGCGUGGCUGCAAUCAAAUUUCGUAACUCAAUCCUCUCAAUGACCUAGCUUGACACCUUUAUAGUGGUAGGGCUCUUCAGA
% decrease =/− SE TP1: 31 ± 5%
% decrease =/− SE TP2: 22 ± 7%

B6: GS3301 (nucleic acid)
sense: CAACAGGGACCAGUUACCCUACACCUACUGGAGGUUACUCUGAAGAGCCCUACCACUAUAAAGGUGUCAAGCUAGGUCAUUGAGAGGAUUGAGUUACGAAAUUUGAUUGCAGCCACGCCUUCGACUUCAACCGAGAAGAGUUCCAAUCUCCCUCUUAGACGCAGGACUACUCUCACGAUACUUCUGUCUCUACUUCUUCUCAUGAGCACGCUAAUACUCUCUAAGCCUCCGUUGAUGUGUUGAAAGACAGGCACCUCAGUUUUGAUUCUAUUCAGCUCGGCAAACAUGUUGUGUACAUUCAUAGACUGAAUUUCUUUUUUAUUAUUU
antisense: AAAUAAUAAAAAAGAAAUUCAGUCUAUGAAUGUACACAACAUGUUUGCCGAGCUGAAUAGAAUCAAAACUGAGGUGCCUGUCUUUCAACACAUCAACGGAGGCUUAGAGAGUAUUAGCGUGCUCAUGAGAAGAAGUAGAGACAGAAGUAUCGUGAGAGUAGUCCUGCGUCUAAGAGGGAGAUUGGAACUCUUCUCGGUUGAAGUCGAAGGCGUGGCUGCAAUCAAAUUUCGUAACUCAAUCCUCUCAAUGACCUAGCUUGACACCUUUAUAGUGGUAGGGCUCUUCAGAGUAACCUCCAGUAGGUGUAGGGUAACUGGUCCCUGUUG
% decrease =/− SE TP1: 32 ± 5%
% decrease =/− SE TP2: 0 ± 9%
